Reference: a protein production outcome set (Wang et al. 2014)

Assay: label from the status in PepcDB records

In the case of “MTVPEEAQTLIGKHYRAPDHFLVGREKIREFAVAVKDDHPTHYSEPDAAAAGYPALVAPLTFLAIAGRRVQLEIFTKFNIPINIARVFHRDQKFRFHRPILANDKLYFDTYLDSVIESHGTVLAEIRSEVTDAEGKPVVTSVVTMLGLEHHHHHH”, the protein production is reported as “failed”.
In the case of “MSVVSPDPAPVPHDPQRRALLRWLVGGGALAGGLGVSAVAQGYRFGVTHEQWNLVGLTRPVRLALLTDLHYGLYIGAGSVRRWVDATLAECPDLILLGGDLVDSHFDAAARPQQTAALLAELGRLRAPLGVYAVWGNHDYGSFGRSISQSPEASRADWAARRDALRAGLAGQGVTVLLNEGRSLRDDLWLGGVDDLRMGEADSVAALRGSGTRATVLLAHNPDVLLRLRSAPGLVLSGHTHGGQVRLPLLGALKVPADPRFTMGWVRGPQGIPAYVSRGLGMSGLPVRNLCEPEITLLTLLPPGALEHHHHHH”, the protein production is reported as “failed”.
For “MEEKRRRARVQGAWAAPVKSQAIAQPATTAKSHLHQKPGQTWKNKEHHLSDREFVFKEPQQVVRRAPEPRVIDREGVYEISLSPTGVSRVCLYPGFVDVKEADWILEQLCQDVPWKQRTGIREDITYQQPRLTAWYGELPYTYSRITMEPNPHWHPVLRTLKNRIEENTGHTFNSLLCNLYRNEKDSVDWHSDDEPSLGRCPIIASLSFGATRTFEMRKKPPPEENGEYTYVERVKIPLDHGTLLIMEGATQADWQHRVPKEYHSREPRVNLTFRTVYPDPRGAPW”, the protein production was “failed”.
For “DDLLIVRGVNLYPSEIEHAVLDINGVAPYYRIDLYEEDNLDVMELTVERAEGSSKDHSELRDDVLSRLQSVLSFTPDQLNLVNPGTIERTEVGKIQRVYDHRN”, the protein production was “failed”.
For “MIIWSGWGFLVAIIVIINTLLGKAIFGSITGDATYFQDHSWPMAVMFIISGVMSWYLGKYINKPDGKVYIDAETGEKVMFNKKHSLFFIKMEYWGPILGVIAIVTLITR”, the protein production was “failed”.
With “MKKKDRYTGHRYAKPNRSSENDIYSNSDRYARTTGNKKYKKRKKKWSAKKKIIVTLCIILGIILMIAGIVFAYIKATLSQLGRVPLPEAPETLGISSEVAEKYKDLDVTNIALFGVDSREDNDIGRSDALMILSIDRVHNKIKLTSIARDTYVTVDGYGQTKINHAYAYEGPELAIKTINENFDMNIQGFVTVNFSQLAEIIDYLGGINIAVTEEEREVANRLIQELGVQCEPITESGESVHLTGDQAVIFARNRDTGGDSERTGRQRKVLSAMFDQAKAIDVTQYPGLINMVLSQSVTSLSDNDMLGIGTWAVTSGATMEQMSLPNENCNSSGEIIDGVWYYVYDLDLATDLLHDFIYEENSAD” the protein production was “failed”.
For “MAKKAMENGYKLILGSQSMARKQILAEMGYDFTIVTADIDEKAIRKEKPEDLVVTIAEAKANEIILKLGGENQFTQDSQPTLLITADTVVVYKGWDKAEVYFHEIPEHVIDDLIDDAITFKVAGGLMLEHPLISPFIDSVVGGVDTVMGLSKELTEKFINDVL”, the protein production was “failed”.
In the case of “MRFRFGVVVPPAVAGARPELLVVGSRPELGRWEPRGAVRLRPAGTAAGDGALALQEPGLWLGEVELAAEEAAQDGAEPGRVDTFWYKFLKREPGGELSWEGNGPHHDRCCTYNENNLVDGVYCLPIGHWIEATGHTNEMKHTTDFYFNIAGHQAMHYSRILPNIWLGSCPRQVEHVTIKLKHELGITAVMNFQTEWDIVQNSSGCNRYPEPMTPDTMIKLYREEGLAYIWMPTPDMSTEGRVQMLPQAVCLLHALLEKGHIVYVHCNAGVGRSTAAVCGWLQYVMGWNLRKVQYFLMAKRPAVYIDEEALARAQEDFFQKFGKVRSSVCSL”, the protein production is reported as “failed”.
In the case of “MEVKEVELELSSEATFLSKTSIGEITAGEKGLNPMELLLVSIGSCSGVDVYHILKKKRQEVKDIKIFLKGKRREKHPKIYEEIEIKYVAVGKVEEKALEQAVKLSTEKYCSVLAMVKPSTNLKISWEVKWEE”, the protein production is reported as “not failed”.
With “MPLTNHTPEDRVQDIFDHIAPQYDQMNSVISLGTHHWWRQRVMQAMTLHAGDFALDVCCGTGDWTIALAQAVGPAGHVVGFDFSGVMLQHATTKVRQAQLDDRITLRQGDAMQLPYPDNYFNVVTIGFGLRNVPDATQVLREMARVVKPGGQVVCLETSQPTNPLVHAGWQVYFGHVVPLMGRLAHHYQAYNYLQSSTHHFVSAKELSRLFTAAGLTQVHYDLFNLGAAAVHWGRKPYLEHHHHHH” the protein production was “not failed”.
In the case of “MKKGAFITQIVIYGLILLASSLIANLVNKIWPAFPMPTPLIGMILLYLLLTFKVVKLEQVAGVSNFFVQFISLIFIPSGIALVTKLDVLKAEGVQIVIVIIVSTLMLLLFTAGIAWVLIQVKEWFIARRTNSNVELEED”, the protein production is reported as “failed”.
With “MPQGCDRPSHGLRLADEQGRCQIKFVASDSPAEQAGLMIGDEIVALNGLRVSADNFSRRLATYQAGQVLELTIFHDDQLQSFSLTLAEPQPQSYNLRPAATVTSLEHHHHHH” the protein production was “failed”.
For “MYTYDSDKTQDGEENLKCSLEKLAKKIIQNAGDTNGNNSTPNSNDDFAQVFGRERPGRVRCVGLGPTPSSFIQNRTTTTLSKEQEVLSLNNRVRELEDKLVKMSDLEDKVDKMNEVIYISTCRRQQQLHYMTSTMDRRRWLQVEGNDFK”, the protein production was “failed”.
In the case of “MVIQEGFSFGNFIIDVFSIFLFILWFWLLITISGDLFRRHDVSGFAKVLWVIFLIVLPYIGVFAYILTQGRGMAERNQERAREARNELRQVVGFSVADELEKLDRLKASGSISEDEFKRLRAKLVE”, the protein production is reported as “failed”.
With “MTVDAATSAEVSQRVLAYLVEQLGVDVSFLRHNDRDRRATRLVAEWPPRLNIPDPDPLRLIYFADADPVFALCEHAKEPLVFRPEPATEDYQRLIEEARGVPVTSAAAVPLVSGEITTGLLGFIKFGDRKWHEAELNALMTIATLFAQVQARVAAEARLRYLADHDDLEHHHHHH” the protein production was “not failed”.
In the case of “MFPFTHVHAFNKGNEEVYMDVENGKNGEGSVFRMPLHYPRYSKEDYQDMPEWKLDRVLADYGLSTYGDLAHKRDFAIGAFLWISTRNPKLYQEKSINSKLKKDTKSAHA”, the protein production is reported as “failed”.
For “MSDSGRADALLAELPRDGRGRLKVFLGAAPGVGKTYAMLQAAHSQLRQGVKVLAGVVETHGRAETEALLSGLPQQPLVRSEYRGVLLEEMDLDGLLKAKPKLVLVDELAHSNAPGSRHAKRWQDIQELLAAGIDVFTTVNVQHLESLNDQVRGITGVQVRETLPDWVLQEAYELLLVDLPPRELLERLRDGKVYVPEQARAAIDAFFTQTNLTALRELAMQTAAAQVDNDLAQGYRQLGQAAPAVRGRLLVGIDGDAQAERLVRHASRVAQRRHLPWSLVHVDNGRLRDEQARLRLQAAQQLAERLGGEVVLLRAGEVAKTLIQHAAERRASLLLVGQSRRRWRRRWFGGGLAARLLRNADGLEINVLDSEPQPHQPGLRVKHSLIWFDYVLAVLATLLASALAWGVASVLPLPNISLVFLAAVLLVAVRSSLGPALACAALSFLSYDFLFIPPNFSLAIQREEDVLTLLFFLLMAALTGNLAARQRRQLQALRDTQEETGELLDLSRKLTAATDRQAVISAAAQHLNGRDELRVCLINRDGQGGWKVETGGSPQFSEAERAAADWAWQHDQPAGLGTGTLPFGRWWWWPLSVDDGPLGLLGVCPREGEEFSGQRRRLLTALSQPLAQALARARLAEDLEAARLHGETEQLRSALLASVSHDLRTPLTSMRGSIDSLLALGEAIPLEDRRELLEGTRDEAERLDRYIQNLLDMTRLGHGALKLARDWVAPGDIVGSALNRLRAVLAPLQVATELPADLPLLYVHAALIEQALVNVLENAARFSPLQGHLQLKVSASEQELSFAVSDEGPGIPEDERAKIFDMFYTAARGDRGGQGTGLGLAICQGMVGAHGGHISVAEGIGGKGTCITLHLPLQTQPELESDL”, the protein production was “failed”.
In the case of “MIPYAFIILLVVFFSVFDFSNLNVFKKKILLFFLSFILILFVGTRFETGDDWGEYTKVFDKIPLVSDLWNDNGMFLLFRMEPGYILFNSVIKSFGGSINEVFLLSSIVVISLFFVFQKRYTLLPFLAVLLYMRYGYMQFNMMFVRQGIAISIFFYSLKYIEDKKIIKYLLINILSSLFHSSLLIVLPLYFVINRRYSNIFLCTVVFISVLLSFFDWMGAILSFFPPFIQSSLTSYTESDVWGGMTGKINIAVAEKFILLLMCLRLREKLEQKNISFNLVFNLFVLSIICYYAFFQTYVFQQRTVLIFQLSTIFIISQLFLFFSVKNRMMVLFILNLMVIYFFFRYINIGKDVYLPYRSWLI”, the protein production is reported as “failed”.
In the case of “SSSSSSVPAYLGDEDLTQETRALISSLPKEKGWLVSEIYEFQGLWHTQAILQGILICQKRFEAKDSDIILVTNPKSGTTWLKALVFALLNRHKFPVSSSGNHPLLVTNPHLLVPFLEGVYYESPDFDFSSLPSPRLMNTHISHLSLPESVKSSSCKIVYCCRNPKDMFVSLWHFGKKLAPEETADYPIEKAVEAFCEGKFIGGPFWDHILEYWYASRENPNKVLFVTYEELKKQTEVEMKRIAEFLECGFIEEEEVREIVKLCSFESLSNLEVNKEGKLPNGIETKTFFRKGEIGGWRDTLSESLAEEIDRTIEEKFKGSGLKFSS”, the protein production is reported as “not failed”.
For “MGLFQSDKAAEEIDPPQDVTFVNDEAGANSNTTAAKKTESEKSDTAKADQASSTVMRELYLIDKNGYVVAQTLPLPKSESTAKQALEYLVQGGPVSEILPNGFRAVLPADTTVNVDIKKDGTAIADFSNEFKNYKKEDEQKIVQSVTWTLTQFSSIDKVKLRINGHELKEMPVGGTPISDDLSRKDGINLETAGVNDLTATHPLTVYYLAENEDSEYYVPVTKRIDNSEKDDITAAINELAKGPSKVSGLLTDFSEDVKLVSKPKIKDGRVTLDFNQSIFGSADEKTKMISSEVLNSIVLTLTEQPDVKSVSVKVNGKSELVNEKGEKLTEPVSRPSQVNTGSFLEHHHHHH”, the protein production was “not failed”.
For “MSDAAISCSWKPFFRELATRLLDYEDRQPELLAALRDASISINHDEGEPLREVDPFTFFSLVLKHTSDATALPLFARVGAALGVQAPSPTDLIGVPWSNPMNAWFFAYRSQRQPGDVPLLWRLARQAVAGILDAQTFEDALKIRKVALPKLTQGLFWLNPERFLALNAVNVPYLQARGLQAAGQVQTLAEYETVLEAAHKLNPDFAALSHRAWLNSQTAALEGNHFPFARYQADAQEFAGDKVKGNLVLDRRYAPLLLDLMAGEWETLKPSRSPYSGREQLAVKVALGGGVKTDGGAFARALLFADDSGFEYVPFSAGLTLEAGLPDGRGDGPRQALQEPARQHTLLTALNAPLPAGLEATLTLNTDFGALFLLPLGPGREAEAAQQLQQYMSGVGRSRRLRVGLSLLPEHLESDKFPELLDAALTYLDALVDLLDGLMRPSEETSTEEIGVPGTRPVAPTPAAFVPVPGVPLNQILYGPPGTGKTYRVVDEALSVLDPAFLSAHPGSEGRAARKARYDELAAQGQISFVTFHQSFGYEDFIEGIKPVMSGGALSYVLQDGVFLEAVRSAGGALAPAAPEAGPSTETQPLVRPDAQVWRMYIDGTAPVSRIRDLSLGRGELRMGSYGKPPRDLTQAGVEDLSGRQLLFKESVRVGDLMLLATAADRIGAVGVVTGDYRFDPHSDPTFATDYAHTRSVKWLAQDLNVGATETLGKSFAPPTLQRVADVTPAQVLQALGVSTAGGETAHAPTPRPHVLIIDEINRGNISKIFGELITLLESGKRTGAPEALTVTLPLSRRPLSVPQSLYVIGTMNTADRSLTLLDAALRRRFVFRPVWPQPEVLPVLDLGGTALDLRKFLHVINDRIERLLSREQVIGHAYLLGLPATLGGVSSALRERILPLLEEYFFEDWSKIREVLGDESKAEALQFIHRSGSGPELRYRLNPEAFENIEAFTGVYAGVSDQDFPFDA”, the protein production was “failed”.
With “QQNIVLSIQDRLQQLPKSERKIAEYILKNTETVISMNAQELAKQAGSSPAAIIRFCHSMDVNGFTELKLLLSANLGQMKQQMYTEVTKGESTADIKQKLQARFVHVVERSGQTLE” the protein production was “not failed”.
